The values below come from patent US20020127543A1, “Methods and compositions utilizing hepatitis C virus molecules” (priority 1999, published 2002).

Where two headings read alike, the source gives them in different places.

One data set has as its target HCV mIRES RNA. Nature of the data set: FRET titration of fluorescein-labelled RNA with Dabsyl-labelled peptides. In kind it is binding. Conditions: HCV loopIII RNA 10 nM, pH7.4, 110 mM KCl. An excerpt: (§1) Oligoribonucleotides with a fluorescein attached to the 5′ end of the molecule (shown in FIG. 6a) were synthesised using conventional oligoribonucleotide techniques. A 19 mer (FIG. 6b) was used for control purposes
(§2) Fluoresein-labeled RNA was titrated with Dabsyl-labelled peptides. The donor (fluorescein) fluoresence was excited at 490 nm. In the presence of peptide, binding leads to a quenching of fluorescence by the non-fluorescent acceptor dye Dabsyl. The quenching curves allow the determination of binding affinities. Fluorescein-labelled RNA containing the mIRES was titrated with various peptides.
(§3) FIG. 7 illustrates binding curves for RNA containing the mIRES titrated with various peptides. Experimental conditions: Fam-labelled RNA (10 nM) was titrated with Dabsyl-labelled peptide in 50 mM Tris/Cl, pH7.4, 110 mM KCl, 5ug/ml BSA, 0.01% Triton X-100, 1%DMSO. Fluorescence (excitation 490 nm/emission at 535 nm) was determined in 96-well plates using a Fluorescence plate reader. The assay volume was 100 μl.
(§4) Dissociation constants were determined by fitting a binding isotherm (1-site-binding) to the titration data using the equation
(§5) Y=((Fmax−Fmin)−((Fmax−Fmin)*c/(Kd+c)))+Fmin

The target of a further data set is 19mer control RNA. As to the kind of experiment: FRET titration of fluorescein-labelled control RNA with Dabsyl-labelled peptides. The format is binding.
From the text: as §1, §2, §3, §4, §5

For data set [1], the system named is eIF3 (eukaryotic initiation factor 3 complex). As to the kind of experiment: EMSA.
The target of another data set is IIIB-Dabcyl RNA. Nature of the data set: Inhibition of paromomycin-TAMRA binding to IIIB-Dabcyl RNA (FRET). Also noted: species or system HCV. The procedure: Measurements were made in a 2 mL cuvette. Increasing amounts of IIIB-Dabcyl RNA (corresponding to the amounts shown in the figure) were added to a solution of 10 nM paromomycin-TAMRA in the presence of 50 mM Tris.HCl pH7.5, 80 mM KCl. For each titration point emission spectra were acquired using a fixed wavelength of 552 nm with the excitation slits set to 5 nm and the emission slits set to 10 nm. Emission spectra were acquired over the range 570-600 nm. Two binding curves are presented, the first in the absence of a test molecule (FIG. 8a) and the second in the presence of 10 μM neomycin (FIG. 8b).

Data set [2] deals with Dabsyl peptide with KKKKK core (synthetic). The conditions noted are these: FRET quenching.
Data set [3] concerns Dabsyl peptide with KKKQR core (synthetic). Conditions: FRET quenching.
For data set [4], the system named is Dabsyl peptide with KKQKR core (synthetic). The conditions noted are these: FRET quenching.
The subject of data set [5] is Dabsyl peptide with KKQRR core (synthetic). The conditions noted are these: FRET quenching.
Data set [6] concerns Dabsyl peptide with KKRQR core (synthetic). Conditions: FRET quenching.
Data set [7] concerns Dabsyl peptide with QQQQQ core (synthetic). Conditions: FRET quenching, R2 N/A.
Data set [8] has as its system Dabsyl peptide with RRRRR core (synthetic). The conditions noted are these: FRET quenching, 50 mM Tris pH 7.4, 110 mM KCl.
Setting [9] is: relative to DIII, no complex formed.

For orientation: Kd means the constant that tells how readily two partners part at equilibrium. Low readings indicate tighter binding, high ones weaker binding. With KKRQR, the equilibrium dissociation constant (Kd) was 104 nM at HCV mIRES RNA and over 500 nM at 19mer control RNA.

Consider QQQQQ, for which the Kd at HCV mIRES RNA and on 19mer control RNA was over 500 nM each time.

In turn, HCV IRES Domain II (DII) came in with a binding signal in data set [1] (setting [9]) of 0.5%.

For KKKQR, the Kd on HCV mIRES RNA was 90 nM; on 19mer control RNA it was over 500 nM.

HCV IRES Domain III (DIII) registered a binding signal in data set [1] (reference, 60 mM KCl, 3 mM MgCl2, 200 nM tRNA, on ice, relative affinity by unlabelled RNA competition) of 100%.

As to KKKKK, the figures for the Kd on HCV mIRES RNA and on 19mer control RNA were 49 nM and over 500 nM, respectively.

For RRRRR, the equilibrium dissociation constant (Kd) stood at 30 ± 10 nM on HCV mIRES RNA and 194 nM on 19mer control RNA.

As to KKQKR, the dissociation constant Kd at HCV mIRES RNA and at 19mer control RNA was over 500 nM each time.

As to KKQRR, the Kd at HCV mIRES RNA was 41 nM; at 19mer control RNA it was over 500 nM.

What is called Ki is the equilibrium dissociation constant of an inhibitor or competing ligand from its target. Read a high Ki as a looser hold on the target. In turn, Neomycin came in with a Ki on IIIB-Dabcyl RNA (10 nM paromomycin-TAMRA, 10 μM neomycin) of 520 nM. In the data set on IIIB-Dabcyl RNA (10 uM), the “Inhibition of paromomycin-TAMRA binding to IIIB-Dabcyl RNA (in words)” value is listed as “inhibits paromomycin-TAMRA binding to IIIB-Dabcyl RNA”.

Take 19-mer control RNA (FIG. 6b): the Kd in [2] (R2 N/A), in [3] (R2 N/A), in data set [4] (R2 N/A), in [5] (R2 N/A), in [6] (R2 N/A) and in [7] was over 500 nM throughout. In data set [8], this substance had a dissociation constant (Kd) of 194 nM.

Turning to HCV mIRES RNA (loop III, FIG. 6a), the Kd was 49 nM in data set [2] (50 mM Tris pH 7.4, 110 mM KCl); 90 nM in data set [3] (50 mM Tris pH 7.4, 110 mM KCl); over 500 nM in data set [4] (50 mM Tris pH 7.4, 110 mM KCl); 41 nM in data set [5] (50 mM Tris pH 7.4, 110 mM KCl); 104 nM in data set [6] (50 mM Tris pH 7.4, 110 mM KCl); over 500 nM in [7] (50 mM Tris pH 7.4, 110 mM KCl). This substance also gave a Kd in data set [8] (±10, 10 nM RNA) of 30 nM.

In the case of tRNA, the binding signal in data set [1] (setting [9]) stood at 0.1%.
